The values that follow come from US20220194983A1 (Bicycle, published 2022).

Numbered stars: 1 amine (or outer) side, 2 acyl side, 3 side chain; on linkers, the order of the positions; unused ones are H or OH. Bridge positions count the residues as written; N and C are the ends. Square brackets hold non-standard residues; d marks the D form. Ends that are not written are not given here. TBMB = c1c(C[*:1])cc(C[*:3])cc1C[*:2]; Dap(Me) = CNC[C@H](N)C(=O)O

Test [1] concerns the target T1, prostate-specific membrane antigen (PSMA) (human, UniProt Q04609 44-750, limits assumed).
T1 construct: also called Glutamate carboxypeptidase II; GCPII
As to the kind of experiment: fluorescence polarization binding assay. The procedure: PSMA binding was measured using the fluorescence polarization assay methodology described in Shen et al (2013) PLOS ONE 8(7), e68339 and PSMA enzyme inhibition was measured using the methodology described in WO 2009/070302.
A general note: Fluorescence polarisation rises when a labelled molecule tumbles more slowly, as on binding a larger partner.

Test [2] has as its target T1, prostate-specific membrane antigen …. Nature of the test: fluorescence polarization, FP (h).
The target is the same in test [3]. Nature of the test: cell-based or functional assay.

T1 sequence (Q04609 44-750 limits assumed): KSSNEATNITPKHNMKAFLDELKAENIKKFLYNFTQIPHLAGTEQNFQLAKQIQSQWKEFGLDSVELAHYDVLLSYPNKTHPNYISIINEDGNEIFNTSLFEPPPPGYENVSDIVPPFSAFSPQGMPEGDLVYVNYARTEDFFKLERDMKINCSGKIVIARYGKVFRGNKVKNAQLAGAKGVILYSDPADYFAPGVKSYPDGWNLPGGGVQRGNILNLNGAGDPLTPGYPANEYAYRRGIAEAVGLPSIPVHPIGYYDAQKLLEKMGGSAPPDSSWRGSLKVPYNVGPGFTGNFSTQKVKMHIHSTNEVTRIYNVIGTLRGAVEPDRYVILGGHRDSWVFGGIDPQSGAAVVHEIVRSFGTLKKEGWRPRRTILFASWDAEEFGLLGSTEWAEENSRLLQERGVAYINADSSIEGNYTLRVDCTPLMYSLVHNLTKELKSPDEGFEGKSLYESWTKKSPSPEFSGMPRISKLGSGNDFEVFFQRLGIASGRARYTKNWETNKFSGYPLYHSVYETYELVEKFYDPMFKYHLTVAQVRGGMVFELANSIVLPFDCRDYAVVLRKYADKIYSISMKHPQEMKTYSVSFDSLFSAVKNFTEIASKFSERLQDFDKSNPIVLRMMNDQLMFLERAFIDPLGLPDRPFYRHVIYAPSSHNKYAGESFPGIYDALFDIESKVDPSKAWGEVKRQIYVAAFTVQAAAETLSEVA

By Ki is commonly meant a dissociation constant, usually derived from enzyme kinetics or from competition with a known ligand. High values mean weaker binding, low ones tighter binding. EVCWD[Dap(Me)]FMMEDGT[Dap(Me)]A (linker 3-6-14 via TBMB, Bicyclic peptide on TBMB scaffold) [21-31-04-T01-N017]: the Ki in test [1] was 700 nM.
As to FCSECYMMEDGTCA (linker 2-5-13 via TBMB) [21-31-11-T01-N001], the inhibition constant (Ki) in test [2] was 6 nM.
Consider ACMVCHMMEDGTCA (linker 2-5-13 via TBMB) [21-31-N002], for which the Ki in test [2] turned out to be 40 nM. Also, the “Enzyme inhibition IC50” value in test [3] worked out at 695 nM.
Consider CIECYIMEDGTCA (linker 1-4-12 via TBMB) [21-31-01-N001], for which, in test [2], the Ki is 70 nM.

B1: 21-31-04-T01-N007 (peptide)
peptide: EVCWDCFMMEDGTCAXXXXXXK
modifications: N-terminal acetyl; D-Glu at 1; Cys 3, 6 and 14 joined by thioether linkages to TBMB scaffold; X16-X21 = Sar; D-Lys at 22
Molecule B1 yielded a Ki in test [2] of 30 nM.

B2: 21-31-04-T01-N001 (peptide)
peptide: EVCWDCFMMEDGTCA
modifications: linker 3-6-14 via TBMB
notes: Bicyclic peptide on TBMB scaffold, all thioether
As for B2, in test [1], the Ki amounted to 3 nM.
